Biological target: MBP-16E6(4C4S) (MBP-GGGGS-TEV-16E6, construct used in SPR) (HPV16, UniProt P03126 1-158, C87S | C104S | C118S | C147S)
Assay: SPR

B1: full-length human E6AP (C-terminal TEV-6xHis-Avi) (enzyme)
chain: MEKLHQCYWKSGEPQSDDIEASRMKRAAAKHLIERYYHQLTEGCGNEACTNEFCASCPTFLRMDNNAAAIKALELYKINAKLCDPHPSKKGASSAYLENSKGAPNNSCSEIKMNKKGARIDFKDVTYLTEEKVYEILELCREREDYSPLIRVIGRVFSSAEALVQSFRKVKQHTKEELKSLQAKDEDKDEDEKEKAACSAAAMEEDSEASSSRIGDSSQGDNNLQKLGPDDVSVDIDAIRRVYTRLLSNEKIETAFLNALVYLSPNVECDLTYHNVYSRDPNYLNLFIIVMENRNLHSPEYLEMALPLFCKAMSKLPLAAQGKLIRLWSKYNADQIRRMMETFQQLITYKVISNEFNSRNLVNDDDAIVAASKCLKMVYYANVVGGEVDTNHNEEDDEEPIPESSELTLQELLGEERRNKKGPRVDPLETELGVKTLDCRKPLIPFEEFINEPLNEVLEMDKDYTFFKVETENKFSFMTCPFILNAVTKNLGLYYDNRIRMYSERRITVLYSLVQGQQLNPYLRLKVRRDHIIDDALVRLEMIAMENPADLKKQLYVEFEGEQGVDEGGVSKEFFQLVVEEIFNPDIGMFTYDESTKLFWFNPSSFETEGQFTLIGIVLGLAIYNNCILDVHFPMVVYRKLMGKKGTFRDLGDSHPVLYQSLKDLLEYEGNVEDDMMITFQISQTDLFGNPMMYDLKENGDKIPITNENRKEFVNLYSDYILNKSVEKQFKAFRRGFHMVTNESPLKYLFRPEEIELLICGSRNLDFQALEETTEYDGGYTRDSVLIREFWEIVHSFTDEQKRLFLQFTTGTDRAPVGGLGKLKMIIAKNGPDTERLPTSHTCFNVLLLPEYSSKEKLKERLLKAITYAKGFGML
modifications: biotin on the Avi tag (BirA biotin-protein ligase) in the SPR experiments
- koff: 0.0004 s⁻¹

Source: publication PMC10902388 (2024)
